This note sets out measurements from US10662241B1, “HER3 antigen-binding molecules” (Hummingbird Bioscience Holdings Pte. Ltd., priority 2019, dated 2020).

“Also recorded” adds a separate entry of the source.

In assay [1] the test system is HEK293 cells engineered to express HER3. The assay is described as follows: Antibody internalisation, pHrodo imaging, HEK293 HER3. The format is cell-based. The settings on record: 120 nM, 24 hours, HEK293 overexpressing HER3. How it is done:
(§1) Briefly, 100,000 HEK293 cells engineered to express HER3, HCC95, N87 or OVCAR8 cells were seeded in wells of 96-well tissue culture plates and cultured overnight at 37° C. in 5% CO2. […] The cells in culture were imaged every 30 min for 24 hours, in 4 different fields of each well. The maximum signal intensity in the FITC channel of each field was quantified at 24 hours.

The subject of assay [2] is OVCAR8 cells. The assay is described as follows: Antibody internalisation, pHrodo imaging, OVCAR8. Particulars: 120 nM, 24 hours. The format is cell-based. The protocol:
as §1

The target in assay [3] is T1, mouse HER3 (Mus musculus, UniProt Q61526).
T1 construct: purchased Sino Biological Inc., China
Description: ELISA cross-reactivity, mouse HER3. The format is binding. The protocol: (§2) ELISAs were used to determine the binding specificity of the antibodies. The antibodies were analysed for binding to human HER3 polypeptide, as well as respective mouse, rat and monkey homologues of HER3 (Sino Biological Inc., China). The antibodies were also analysed for their ability to bind to human EGFR and human HER2 (Sino Biological Inc., China).
(§3) ELISAs were carried out according to standard protocols. Briefly, 96-well plates (Nunc, Denmark) were coated with 0.1 μg/ml of target polypeptide in phosphate-buffered saline (PBS) for 16 h at 4° C. After blocking for 1 h with 1% BSA in […] (TBS) at room temperature, the anti-HER3 antibody was serially diluted with the highest concentration being 10 μg/ml, and added to the plate, Post 1 h incubation at room temperature, plates were washed three times with TBS containing 0.05% Tween 20 (TBS-T) and were then incubated with a HRP-conjugated anti-His antibody (Life Technologies, Inc., USA) for 1 h at room temperature. After washing, plates were developed with colorimetric detection substrate 3,3′,5,5′-tetramethylbenzidine (Turbo-TMB; Pierce, USA) for 10 min. The reaction was stopped with 2M H2SO4, and OD was measured at 450 nm. […]

Assay [4] concerns the target T2, rat HER3 (Rattus norvegicus, UniProt Q62799).
T2 construct: purchased Sino Biological Inc., China
Description: ELISA cross-reactivity, rat HER3. The class given is binding. How it is done: as §2, §3

Assay [5] concerns cynomolgus macaque HER3. Description: ELISA cross-reactivity, cynomolgus macaque HER3. The format is binding. How it is done: as §2, §3
For assay [6], the target named is T3, human EGFR (Homo sapiens, UniProt P00533).
T3 construct: purchased Sino Biological Inc., China
The assay is described as follows: ELISA specificity, human EGFR. The class given is binding. The settings on record: antibody up to 10 μg/ml. How it is done:
as §2
(§4) ELISAs were carried out according to standard protocols. Briefly, 96-well plates (Nunc, Denmark) were coated with 0.1 μg/ml of target polypeptide in phosphate-buffered saline (PBS) for 16 h at 4° C. After blocking for 1 h with 1% BSA in […] (TBS) at room temperature, the anti-HER3 antibody was serially diluted with the highest concentration being 10 μg/ml, and added to the plate, Post 1 h incubation at room temperature, plates were washed three times with TBS containing 0.05% Tween 20 (TBS-T) and were then incubated with a HRP-conjugated anti-His antibody (Life Technologies, Inc., USA) for 1 h at room temperature. […] The reaction was stopped with 2M H2SO4, and OD was measured at 450 nm.
(§5) The antibodies were analysed for their ability to bind to human HER3 polypeptide as well as human HER1 (EGFR) and human HER2 (Sino Biological Inc., China). […]
(§6) ELISAs were carried out according to standard protocols. […] The reaction was stopped with 2M H2SO4, and OD was measured at 450 nm.

For assay [7], the target named is T4, human HER2 (Homo sapiens, UniProt P04626).
T4 construct: purchased Sino Biological Inc., China
Description: ELISA specificity, human HER2. The format is binding. The settings on record: antibody up to 10 μg/ml. The protocol:
as §2, §4, §5, §6

Assay [8] addresses T5, human HER3 (Homo sapiens, UniProt P21860). Description: Immunohistochemistry of frozen human tissue sections. More on the design: from tissue; host or cells: arrays of frozen tissue sections. Particulars: mIgG2a format. How it is done:
Anti-HER3 antibody 10D1F in mIgG2a format was evaluated for its ability to be used in immunohistochemistry for the detection of human HER3 protein.
Processing of sections was performed using Bond reagents (Leica Biosystems). Arrays of commercially-available frozen tissue sections were obtained. Slides were dried in a desiccator for 10 min and then subjected to the following treatments, with water washes and/or TBS-T rinses between steps: (i) fixation by treatment with 100% acetone for 10 min at room temperature; (ii) endogenous peroxidase blocking by treatment with 3% (v/v) H2O2 for 15 min at room temperature; (iii) blocking by treatment with 10% goat serum for 30 min at room temperature, (iv) incubation with 10D1F-mIgG2a at 1:250 dilution of a 6.2 mg/ml solution overnight at 4° C., (v) incubation with HRP-polymer conjugated goat anti-mouse antibody for 30 min at room temperature, and (vi) development with Bond Mixed DAB Refine for 5 min at room temperature, followed by rinsing with deionised water and 1× Bond Wash to stop the reaction.
Slides were then dehydrated, mounted in synthetic mounting media and scanned with high resolution.

In assay [9] the target is T5, human HER3. Description: BLI competition between anti-HER3 antibodies for binding to HER3. The protocol:
Bio-Layer Interferometry (BLI) experiments were performed using the Octet QK384 system (ForteBio), anti-Penta-HIS (HIS1K) coated biosensor tips (ForteBio, USA) were used to capture His-tagged human HER3 (75 nM; 300 s). […] The variable region of LJM-716 antibody was cloned in the PDZ vector having human IgG1 and IgKappa Fc backbone.
BLI experiments were performed as described in Example 3.5 with one alteration: 400 nM of competing antibodies were used. The variable regions of M-05-74 and M-08-11 antibodies were cloned in the PDZ vector having human IgG1 and IgKappa Fc backbone.

The test system of assay [10] is HER3-mediated signalling (pHER3, pAKT). The assay is described as follows: Inhibition of HER3-mediated signalling in vitro, phospho-western blot. The settings on record: N87 and FaDu cells, 50 μg/ml 4 hrs, NRG 100 ng/ml. The format is cell-based. How it is done:
Briefly, N87 and FaDu cells were seeded in wells of a 6 well plate with 10% serum at 37° C., 5% CO2. After 16 hrs, cells were starved by culture overnight in 1% FBS cell culture medium (to reduce signalling elicited by growth factors in the serum). […] Proteins were then extracted, quantified using standard Bradford protein assay, fractionated by SDS-PAGE, and transferred to nitrocellulose membranes. The membranes were then blocked and immunoblotted with the following antibodies overnight at 4° C. anti-pHER3, anti-pAKT, pan anti-HER3, pan anti-AKT and anti-beta-actin. The blots were visualized via Bio-Rad Clarity Western ECL substrate, and bands were quantified using densiometric analysis; data were normalized to beta actin controls.
N87, FaDu or OvCAR8 cells were seeded in wells in a 6 well plate with 10% serum overnight at 37° C. with 5% CO2. […] Antibodies tested were: 10D1F.FcA (10D1), Seribantumab (SBT), Elegemtumab (LJM), Pertuzumab (PTM), Cetuximab (CTX), and Trastuzumab (TZ).
Before harvesting, cells were stimulated with 100 ng/ml of NRG1, Protein extracted from cell lines were quantified using standard Bradford protein assay, Protein samples (50 μg) were fractionated by SDS-PAGE and transferred to nitrocellulose membrane. […] The blots were quantified using densiometric analysis and data was normalised to beta actin. […]

Assay [11] relates to PI3K/AKT/mTOR and MAPK signalling. Description: Phosphoprotein Antibody Array, FaDu cells. Particulars: 50 μg/ml 4 hrs, NRG 100 ng/ml. The class given is cell-based. How it is done:
In further experiments the inventors investigated the intracellular signalling pathways affected by anti-HER3 antibody-mediated inhibition of HER3.
FaDu cells were seeded in wells of a 6 well plate with 10% serum at 37° C., 5% CO2. After 16 hrs, cells were starved by culture overnight in 1% FBS cell culture medium. […] Proteins were then extracted, quantified using standard Bradford protein assay, and incubated overnight with pre-blocked Phosphoprotein Antibody Array membrane (Ray Biotech) at 4° C., The membrane was then washed with washing buffer and incubated with detection antibody cocktail for 2 hrs at room temperature, followed by washing and incubation with HRP-Conjugated anti-IgG. After 2 hrs the membrane was washed and probed using the kit detection buffer. Images were captured with Syngene Gbox imaging system, the intensity of each dot/phosphoprotein was measured and percent inhibition was calculated by comparison with intensity measured for cells treated in the same way in the absence of the antibody.

The test system of assay [12] is N87 cells. The assay is described as follows: CCK-8 proliferation assay, N87 cells. The class given is cell-based. Particulars: N87, 5 days, from 100 μg/ml. The protocol: (§7) Cell proliferation was measuring using the CCK-8 proliferation assay (Dojindo, Japan) after a period of 5 days, in accordance with the manufacturers instructions, Briefly 1×CCK-8 solution was added to each well followed by incubation for 2 h at 37° C. The OD was then measured at 450 nm.

Assay [13] relates to FaDu cells. Description: CCK-8 proliferation assay, FaDu cells. The class given is cell-based. Particulars: 5 days, from 100 μg/ml. The protocol: as §7

T2 sequence (Q62799 20-1339): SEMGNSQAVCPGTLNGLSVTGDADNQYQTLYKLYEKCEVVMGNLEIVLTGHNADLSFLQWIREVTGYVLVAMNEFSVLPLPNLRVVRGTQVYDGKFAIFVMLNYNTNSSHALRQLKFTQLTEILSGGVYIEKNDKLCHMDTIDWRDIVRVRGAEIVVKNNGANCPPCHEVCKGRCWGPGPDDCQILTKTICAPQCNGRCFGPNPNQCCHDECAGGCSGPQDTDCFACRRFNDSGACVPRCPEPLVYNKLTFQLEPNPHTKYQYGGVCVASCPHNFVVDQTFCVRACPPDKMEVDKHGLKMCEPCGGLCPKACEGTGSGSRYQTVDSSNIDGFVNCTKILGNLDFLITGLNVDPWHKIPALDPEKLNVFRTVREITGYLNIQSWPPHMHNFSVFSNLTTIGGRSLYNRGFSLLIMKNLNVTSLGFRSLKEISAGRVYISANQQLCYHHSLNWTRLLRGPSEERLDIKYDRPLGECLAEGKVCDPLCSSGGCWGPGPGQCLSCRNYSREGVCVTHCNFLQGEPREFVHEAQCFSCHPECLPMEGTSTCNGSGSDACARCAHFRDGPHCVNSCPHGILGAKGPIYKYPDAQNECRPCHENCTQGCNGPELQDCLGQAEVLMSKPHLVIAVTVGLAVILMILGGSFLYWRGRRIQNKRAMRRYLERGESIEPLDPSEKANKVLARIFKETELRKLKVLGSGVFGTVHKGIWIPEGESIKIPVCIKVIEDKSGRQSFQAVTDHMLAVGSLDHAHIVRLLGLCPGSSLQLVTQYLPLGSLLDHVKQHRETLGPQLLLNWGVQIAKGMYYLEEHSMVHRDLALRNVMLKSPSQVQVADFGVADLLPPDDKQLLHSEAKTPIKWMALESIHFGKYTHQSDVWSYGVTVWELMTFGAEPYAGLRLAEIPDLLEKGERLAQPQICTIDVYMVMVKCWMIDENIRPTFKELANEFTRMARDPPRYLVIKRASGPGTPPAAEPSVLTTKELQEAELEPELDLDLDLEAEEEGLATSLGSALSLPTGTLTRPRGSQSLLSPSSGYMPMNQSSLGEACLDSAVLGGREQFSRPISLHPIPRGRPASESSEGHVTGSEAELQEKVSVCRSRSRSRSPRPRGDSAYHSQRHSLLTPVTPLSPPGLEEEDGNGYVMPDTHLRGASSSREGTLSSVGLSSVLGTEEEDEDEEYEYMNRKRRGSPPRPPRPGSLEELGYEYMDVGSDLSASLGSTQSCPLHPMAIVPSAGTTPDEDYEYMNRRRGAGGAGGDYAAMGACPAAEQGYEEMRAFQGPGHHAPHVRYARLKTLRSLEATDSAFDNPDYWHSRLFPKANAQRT
T1 sequence (Q61526 20-1339): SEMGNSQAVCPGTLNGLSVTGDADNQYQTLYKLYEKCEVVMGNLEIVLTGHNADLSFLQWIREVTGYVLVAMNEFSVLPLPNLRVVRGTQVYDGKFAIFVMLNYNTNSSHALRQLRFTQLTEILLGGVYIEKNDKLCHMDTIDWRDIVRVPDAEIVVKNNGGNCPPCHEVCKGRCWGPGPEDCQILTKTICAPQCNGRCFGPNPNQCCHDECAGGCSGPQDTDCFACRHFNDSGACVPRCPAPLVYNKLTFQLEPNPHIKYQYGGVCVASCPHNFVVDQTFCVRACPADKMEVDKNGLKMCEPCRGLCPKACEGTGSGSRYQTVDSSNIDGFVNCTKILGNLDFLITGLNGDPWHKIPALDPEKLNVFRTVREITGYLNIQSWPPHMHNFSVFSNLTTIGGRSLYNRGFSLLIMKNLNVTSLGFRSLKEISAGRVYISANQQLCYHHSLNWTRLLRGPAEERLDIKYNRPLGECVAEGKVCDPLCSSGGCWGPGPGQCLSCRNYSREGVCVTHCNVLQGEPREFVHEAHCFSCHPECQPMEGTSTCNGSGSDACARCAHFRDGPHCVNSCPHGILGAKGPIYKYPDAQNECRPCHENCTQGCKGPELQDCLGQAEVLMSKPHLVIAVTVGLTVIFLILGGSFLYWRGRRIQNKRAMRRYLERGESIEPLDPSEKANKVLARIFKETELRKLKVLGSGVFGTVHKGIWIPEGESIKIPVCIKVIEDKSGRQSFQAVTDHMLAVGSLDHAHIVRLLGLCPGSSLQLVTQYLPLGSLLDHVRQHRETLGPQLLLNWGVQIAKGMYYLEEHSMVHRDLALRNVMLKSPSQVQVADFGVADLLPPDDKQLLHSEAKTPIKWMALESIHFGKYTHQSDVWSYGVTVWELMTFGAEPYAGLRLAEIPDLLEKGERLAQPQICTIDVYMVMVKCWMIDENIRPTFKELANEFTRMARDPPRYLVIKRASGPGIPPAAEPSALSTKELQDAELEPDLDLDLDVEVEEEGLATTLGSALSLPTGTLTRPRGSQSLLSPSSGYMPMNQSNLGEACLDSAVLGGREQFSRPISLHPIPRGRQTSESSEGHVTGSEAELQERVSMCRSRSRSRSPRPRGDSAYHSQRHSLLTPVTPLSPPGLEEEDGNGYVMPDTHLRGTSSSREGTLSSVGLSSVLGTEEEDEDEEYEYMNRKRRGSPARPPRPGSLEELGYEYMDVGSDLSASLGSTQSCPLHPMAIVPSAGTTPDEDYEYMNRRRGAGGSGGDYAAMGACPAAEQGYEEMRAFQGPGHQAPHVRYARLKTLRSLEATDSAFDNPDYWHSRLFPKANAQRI

On to “LJM716: anti-HER3 antibody clone LJM716 (Garner et al., Cancer Res (2013) 73: 6024-6035), also referred to as Elgemtumab [reference compound]”, for which the Internalisation result in assay [1] was “significant internalization”; in assay [2], “Modest to moderate internalization”.

B1: 4-35-B2: anti-HER3 antibody clone; VH = SEQ ID NO:127, VL = SEQ ID NO:135 (antibody, V domains shown)
VH: EIQLQQSGPELVKPGASVKVSCKASGYSFTDYNMYWVKQSHGKSLEWIGHINPYNGGTTYNQKFKGRATLTVDKSSSTAFMHLNSLTSEDSAVYFCVSLRWGAMDYWGQGTSVTVSS
VL: QIVLTQSPALMSASPGEKVTMTCSASSSVSYMYWYQQKPRSSPKPWIYLTSNLASGVPARFSGSGSGTSYSLTISSMEAEDAATYYCQQWNSNPYTFGGGTKLEIK
modifications: 4-35-B2 heavy chain variable region; 4-35-B2 light chain variable region
Take B1: in assay [3], the “Cross-reactivity with mouse HER3” value is “substantial cross-reactivity”. The “Cross-reactivity with rat HER3” value in assay [4] is on record as “substantial cross-reactivity”. For the same molecule, the “Cross-reactivity with cynomolgus macaque HER3” value in assay [5] is recorded as “substantial cross-reactivity”. Also, the “Binding to human EGFR” value in assay [6] is “bind to human HER2 and human EGFR”. In assay [7], the “Binding to human HER2” value is “bind to human HER2 and human EGFR”.

B2: 10D1F: Anti-HER3 antibody 10D1F (VH SEQ ID NO:36, VL SEQ ID NO:83) in mIgG2a format, used for immunohistochemistry (antibody, V domains shown)
VH: QVQLQESGPGLVKPSQTLSLTCTVSGYSITSGYSWHWIRQHPGKGLEWIGSIRYSGGTDYNPSLKSLVTISADTSKNQFSLKLSSVTAADTAVYYCARMTTAPWYPFDYWGQGTTVTVSS
VL: DIQMTQSPSSVSASVGDRVTITCKASQIVGSNVAWYQQKPGKAPEPLIYSASYLYSGVPSRFSGSGSGTDFTLTISSLQPEDFATYYCQQYSSHPLTFGQGTKLEIK
modifications: mouse IgG2a constant regions; 10D1_c89 heavy chain variable region; 10D1_c89 light chain variable region
As for B2, the “Staining of malignant and normal human tissue sections” value in [8] is “preferentially stained malignant human tissue sections, with low cross-reactivity to normal tissue”.

B3: 10D1: anti-HER3 antibody clone, parental mouse; VH = SEQ ID NO:24, VL = SEQ ID NO:74 (antibody, V domains shown)
VH: DVQLQESGPDLVKPSQSLSLTCTVTGYSITSGYSWHWIRQFPGNKLEWMGSIHYSGGTNYNPSLKSRISITRDTSKNQFFLQLNSVTTEDTATYFCARMTTAPRYPFDYWGQGTTLTVSS
VL: DIVMTQSQKFMSTSVGDRVSVTCKASQIVGSNVAWYQQKPGQSPKPLIYSASYRYSGVPDRFTASGSGTDFTLTITNVQSEDLAEYFCQQYSSHPLTFGAGTKLELK
modifications: 10D1 heavy chain variable region; 10D1 light chain variable region
With B3, the “Cross-reactivity with mouse HER3” value in assay [3] is “substantial cross-reactivity”. In addition, the “Cross-reactivity with rat HER3” value in [4] is “substantial cross-reactivity”. For the same molecule, in assay [5], the “Cross-reactivity with cynomolgus macaque HER3” value was “substantial cross-reactivity”. Moreover, the “Binding to human EGFR” value in assay [6] is “not to bind”. Also, the “Competition with MM-121 and/or LJM-716 for binding to HER3” value in assay [9] was “not to compete with MM-121 and/or LJM-716 for binding to HER3; also recorded: distinct and topologically distant epitope of HER3 than MM-121 and/or LJM-716”. For the same molecule, in [10], the “Inhibition of HER3 phosphorylation and downstream signalling” value was “inhibit HER3 phosphorylation and downstream signalling”. Besides, the “Inhibition of intracellular signalling pathways” value in assay [11] is “inhibit PI3K/AKT/mTOR and MAPK signalling”. Further, the “Inhibition of cell proliferation” value in assay [12] and in [13] was “dose-dependent inhibition of cell proliferation” in each case.
